Measurements published in patent US10328136.

Target: nectin-1 (human) (UniProt Q15223)
Assay: cell-based or functional assay

UniProt Q15223, sequence (Q15223 31-517): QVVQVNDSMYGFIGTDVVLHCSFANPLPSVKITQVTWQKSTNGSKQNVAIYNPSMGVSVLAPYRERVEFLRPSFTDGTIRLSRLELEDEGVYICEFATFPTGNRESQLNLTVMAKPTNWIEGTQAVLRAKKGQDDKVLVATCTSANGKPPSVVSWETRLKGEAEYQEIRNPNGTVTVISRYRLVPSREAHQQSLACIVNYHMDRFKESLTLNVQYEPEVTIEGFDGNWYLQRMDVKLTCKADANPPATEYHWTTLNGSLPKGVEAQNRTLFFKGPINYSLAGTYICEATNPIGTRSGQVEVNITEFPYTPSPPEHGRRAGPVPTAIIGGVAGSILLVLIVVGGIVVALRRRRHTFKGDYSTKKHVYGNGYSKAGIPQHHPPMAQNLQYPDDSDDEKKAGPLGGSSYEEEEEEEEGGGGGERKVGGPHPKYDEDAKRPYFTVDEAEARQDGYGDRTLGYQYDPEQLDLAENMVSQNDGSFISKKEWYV

Question: Which entry of QOZHG into J/C cells (X-gal staining at 24 hpi, MOI=10) does the source give for “wild-type glycoprotein D (gD) of HSV-1 strain KOS” here?
Answer: 100%
